Source: PMC10902354, “Deficiency in PHD2-mediated hydroxylation of HIF2α underlies Pacak-Zhuang syndrome” (Communications Biology, 2024)
Values belong to the molecule of their own block, whether it stands above or below them. Peptide text beside a SMILES is read from it.

Tests used:
[1] = biological target: T1, PHD2 (prolyl-hydroxylase domain, residues 181–426) (Homo sapiens, UniProt Q9GZT9); assay: Microscale thermophoresis (MST) binding of HIFα-CODD peptides to the catalytic domain of PHD2; conditions: MST; for PHD2 affinity / Kd compared with another peptide (in words): with NOG; for Kd (MST-determined PHD2/HIFα-CODD complex dissociation constant): 25 nM Alexa 647-labeled PHD2, Tris–HCl with NOG (1 mM NOG, 10 µM FeSO4, 5 mg/ml BSA in 2x MST Buffer pH 7.5), peptide in Tris pH 8.0, room temperature, 10 min incubation, 1:1 Kd model, triplicate measurements, highest concentration omitted for Y532H and P531A (aggregation); for Kd (Fit Results, Fit Model Kd): target WT-PHD2(181-426), TargetConcentration 2.5e-8, ligand HIF2a-CODD peptide, MST-Power Medium, Excitation-Power 20 Nano - RED, hot region 19 to 20, unit of Kd not printed (doses of the same sheet are in M), Fig. 1c source data; for Kd relative to WT HIF2α-CODD: fold of the HIF2α WT Kd
T1 construct: encodes for His6-PHD2 (prolyl-hydroxylase domain, residues 181–426); His6 (N, cleaved yes); made in house; host or cells: E. coli BL21(DE3)
T1 sequence (Q9GZT9 181-426): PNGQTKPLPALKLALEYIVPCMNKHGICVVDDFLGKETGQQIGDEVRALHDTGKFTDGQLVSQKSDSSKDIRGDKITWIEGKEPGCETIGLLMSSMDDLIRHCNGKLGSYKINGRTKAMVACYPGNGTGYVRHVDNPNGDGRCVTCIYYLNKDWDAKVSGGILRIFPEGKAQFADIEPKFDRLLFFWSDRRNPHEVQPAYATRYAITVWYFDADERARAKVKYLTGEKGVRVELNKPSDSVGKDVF
Experimental: To determine if there is a direct effect of HIF2α mutations on PHD2 binding, we devised a quantitative method for determining the dissociation constant (Kd) of the HIF2α-CODD peptides and the catalytic domain of PHD2 using microscale thermophoresis (MST)[13],[14] in the presence of the PHD inhibitor n-oxalylglycine (NOG) to inhibit reaction turnover.
PHD2 was purified via a previously described but modified procedure[4],[30]. […] Cells were grown to an OD600 of 0.8 at 37 °C and expression of His6-PHD2 was induced with a final concentration of 0.5 mM IPTG. Cells were grown for an additional 3 h post-induction at 37 °C and harvested via centrifugation. Cell pellets were either used immediately for purification or stored at −80 °C for later use. Cell pellets were resuspended in Lysis Buffer (50 mM Tris–HCl pH 7.9, 500 mM NaCl, 5 mM Imidazole) containing 1x SigmaFast protease inhibitor cocktail (Sigma-Aldrich) and lysed with 3 passes through an Emulsiflex-C3 cell disruptor (Avestin) at 20-30 kPSI. […] Clarified lysates were applied to a 2 ml Ni-NTA (Thermo Scientific) column pre-equilibrated with Lysis Buffer. The beads were washed with 10 ml Lysis buffer and 2 × 30 ml of Wash Buffer (50 mM Tris–HCl pH 7.9, 500 mM NaCl, 30 mM Imidazole). His6-PHD2 was eluted by applying 10 ml Elution Buffer (50 mM Tris–HCl pH 7.9, 500 mM NaCl, 1 M Imidazole) to the column. Ni-NTA purified His6-PHD2 was dialyzed using a 10 kDa cut-off dialysis membrane against 2 L of Dialysis Buffer (50 mM Tris–HCl pH 7.5) for 4 h at 4 °C. […] Dialysis and thrombin cleavage were allowed to continue overnight at 4 °C. Thrombin-cleaved PHD2 was collected and applied to a 2 ml Ni-NTA column pre-equilibrated with Dialysis Buffer to remove uncleaved protein and cleaved His6 tags. The flow-through was collected and the beads were washed with 10 ml of Dialysis Buffer supplemented with 5 mM imidazole. The 5 mM imidazole eluate was pooled with the flow through and concentrated with an Amicon 10 kDa cut-off centrifugal concentrator (Millipore) to a volume of ~600 µl. The concentrated PHD2 was then applied to a Superdex 75 Increase 10/300 GL column (Cytiva) equilibrated with Dialysis Buffer or Labeling Buffer (50 mM HEPES pH 7.5, 150 mM NaCl) depending on the intended use of the sample. Eluted fractions containing PHD2 were collected and pooled. For the His6-PHD2 used in the indirect hydroxylation assay, no thrombin was added during dialysis steps therefore the His6-tag was not removed and the subsequent passage of the sample through Ni-NTA beads to remove His6-tags was not performed. Otherwise, the purification protocol for His6-PHD2 is the same as thrombin-cleaved PHD2. All purification steps were analyzed by SDS–PAGE and the Superdex 75 Increase chromatogram was used to assess size and aggregation, see Supplementary Fig. 5 for a representative purification assessment.
Labeling was conducted at room temperature for 1 h in the dark. Excess dye was then removed first by the passage of the sample through a PD-10 desalting column containing Sephadex G-25 resin (Cytiva) equilibrated with Dialysis Buffer and then any remaining excess dye was removed via repeated 10-fold dilution in Dialysis Buffer and subsequent concentration in an Amicon 10 kDa cut off centrifugal filter until the dye could no longer be detected in the concentrator flow through by Absorbance at 650 nm.
MST measurements were taken using a Monolith NT.115 (Nanotemper Technologies) at room temperature using standard MST capillaries (Nanotemper Technologies). […] For each HIFα-CODD peptide, ~1 mg dry weight of peptide was dissolved in 200 µl of 50 mM Tris–HCl pH 8.0 and concentrations were measured using UV absorbance at 280 nm for most peptides and BCA assay (Thermo Scientific) for Y532C and Y532H peptides using known concentrations of the WT HIF2α-CODD peptide to create a standard curve.

[2] = biological target: T2, Alexa 647 labeled PHD2 (catalytic / prolyl-hydroxylase domain, residues 181-426) (human, UniProt Q9GZT9 181-426, Alexa Fluor 647 N-hydroxysuccinimide ester dye, 1-2 dye molecules per protein molecule); assay: MST; 25 nM Alexa 647 labeled PHD2, unlabeled peptide in 16 two-fold dilutions; room temperature; MST Buffer 50 mM Tris-HCl pH 7.5, 1 mM NOG, 10 µM FeSO4, 5 mg/ml BSA mixed 1:1 with peptide in 50 mM Tris-HCl pH 8.0; 1:1 Kd model; triplicate; conditions: both partners purified
T2 construct: PHD2, prolyl-hydroxylase domain (catalytic domain), residues 181-426, from pET-46-HIS6-PHD2; Same construct as m2, dye-labeled for MST; also called PHD2-647; source: E. coli BL21(DE3), purified (Ni-NTA, thrombin cleavage, Superdex 75), labeled with Alexa Fluor 647 NHS ester
T2 sequence (Q9GZT9 181-426): as above

Molecule: HIF2α Y532C: Class 1 mutant HIF2α-CODD peptide (Ac-ELDLETLAPCIPMDGEDFQL-NH2)
PHD2 affinity / Kd compared with another peptide (in words) [1]: strongly detrimental to the interaction of PHD2 with HIF2α-CODD

Molecule: HIF2α P531S: Class 1 mutant HIF2α-CODD peptide (Ac-ELDLETLASYIPMDGEDFQL-NH2)
Kd (MST-determined PHD2/HIFα-CODD complex dissociation constant) [1]: No binding
Kd (Fit Results, Fit Model Kd) [1]: 0.01316

Molecule: HIF2α P531L: Class 1 mutant HIF2α-CODD peptide (Ac-ELDLETLALYIPMDGEDFQL-NH2)
Kd (MST-determined PHD2/HIFα-CODD complex dissociation constant) [1]: No binding

Molecule: CC[C@H](C)[C@H](NC(=O)[C@H](Cc1ccc(O)cc1)NC(=O)[C@@H]1CCCN1C(=O)[C@@H](NC(=O)[C@H](CC(C)C)NC(=O)[C@@H](NC(=O)[C@H](CCC(=O)O)NC(=O)[C@H](CC(C)C)NC(=O)[C@H](CC(=O)O)NC(=O)[C@H](CC(C)C)NC(=O)[C@H](CCC(=O)O)NC(C)=O)[C@@H](C)O)[C@@H](C)O)C(=O)N1CCC[C@H]1C(=O)N[C@@H](CCSC)C(=O)N[C@@H](CC(=O)O)C(=O)NCC(=O)N[C@@H](CCC(=O)O)C(=O)N[C@@H](CC(=O)O)C(=O)N[C@@H](Cc1ccccc1)C(=O)N[C@@H](CCC(N)=O)C(=O)N[C@@H](CC(C)C)C(N)=O [HIF2α A530T]
PHD2 affinity / Kd compared with another peptide (in words) [1]: significant effect on PHD2 binding affinity

Molecule: CC[C@H](C)[C@H](NC(=O)[C@H](Cc1ccc(O)cc1)NC(=O)[C@@H]1CCCN1C(=O)[C@H](C)NC(=O)[C@H](CC(C)C)NC(=O)[C@@H](NC(=O)[C@H](CCC(=O)O)NC(=O)[C@H](CC(C)C)NC(=O)[C@H](CC(=O)O)NC(=O)[C@H](CC(C)C)NC(=O)[C@H](CCC(=O)O)NC(C)=O)[C@@H](C)O)C(=O)N1CCC[C@H]1C(=O)N[C@@H](CCSC)C(=O)N[C@@H](CC(=O)O)C(=O)N[C@@H](Cc1c[nH]c2ccccc12)C(=O)N[C@@H](CCC(=O)O)C(=O)N[C@@H](CC(=O)O)C(=O)N[C@@H](Cc1ccccc1)C(=O)N[C@@H](CCC(N)=O)C(=O)N[C@@H](CC(C)C)C(N)=O [HIF2α G537W] (Ac-ELDLETLAPYIPMDWEDFQL-NH2)
Kd relative to WT HIF2α-CODD [1]: 2.4 × WT

Molecule: HIF2α L529P: Class 1 mutant HIF2α-CODD peptide (Ac-ELDLETPAPYIPMDGEDFQL-NH2)
Kd (MST-determined PHD2/HIFα-CODD complex dissociation constant) [1]: No binding
Kd (Fit Results, Fit Model Kd) [1]: 0.01043

Now from value to molecule:

PHD2 affinity / Kd compared with another peptide (in words) [1]: intermediate affinity
Molecule: CC[C@H](C)[C@H](NC(=O)[C@H](Cc1ccc(O)cc1)NC(=O)[C@@H]1CCCN1C(=O)[C@H](C)NC(=O)[C@H](CC(C)C)NC(=O)[C@H](CCSC)NC(=O)[C@H](CCC(=O)O)NC(=O)[C@H](CC(C)C)NC(=O)[C@H](CC(=O)O)NC(=O)[C@H](CC(C)C)NC(=O)[C@H](CCC(=O)O)NC(C)=O)C(=O)N1CCC[C@H]1C(=O)N[C@@H](CCSC)C(=O)N[C@@H](CC(=O)O)C(=O)NCC(=O)N[C@@H](CCC(=O)O)C(=O)N[C@@H](CC(=O)O)C(=O)N[C@@H](Cc1ccccc1)C(=O)N[C@@H](CCC(N)=O)C(=O)N[C@@H](CC(C)C)C(N)=O [HIF2α T528M] (Ac-ELDLEMLAPYIPMDGEDFQL-NH2)

PHD2 affinity / Kd compared with another peptide (in words) [1]: near wild-type affinity
Kd relative to WT HIF2α-CODD [1]: 1.2 × WT
Molecule: CC[C@H](C)[C@H](NC(=O)[C@H](Cc1c[nH]cn1)NC(=O)[C@@H]1CCCN1C(=O)[C@H](C)NC(=O)[C@H](CC(C)C)NC(=O)[C@@H](NC(=O)[C@H](CCC(=O)O)NC(=O)[C@H](CC(C)C)NC(=O)[C@H](CC(=O)O)NC(=O)[C@H](CC(C)C)NC(=O)[C@H](CCC(=O)O)NC(C)=O)[C@@H](C)O)C(=O)N1CCC[C@H]1C(=O)N[C@@H](CCSC)C(=O)N[C@@H](CC(=O)O)C(=O)NCC(=O)N[C@@H](CCC(=O)O)C(=O)N[C@@H](CC(=O)O)C(=O)N[C@@H](Cc1ccccc1)C(=O)N[C@@H](CCC(N)=O)C(=O)N[C@@H](CC(C)C)C(N)=O [HIF2α Y532H] (Ac-ELDLETLAPHIPMDGEDFQL-NH2)

Kd [2]: 13 ± 2 µM
B1: HIF2α-CODD ΔG537 peptide (peptide, UniProt Q99814 523-542, looked up)
peptide: Ac-ELDLETLAPYIPMDEDFQL-NH2
notes: HIF2α (EPAS1) CODD peptide, human, as m3 without G537; also called HIF2α ΔG537; source: synthetic peptide (Genscript, ≥95% purity)

Kd [2]: 627 ± 126 µM
B2: HIF2α-CODD A530T peptide (peptide, UniProt Q99814 523-542, looked up)
peptide: Ac-ELDLETLTPYIPMDGEDFQL-NH2
notes: HIF2α (EPAS1) CODD peptide, human, as m3 with the disease mutation A530T (Class 1); also called HIF2α A530T; source: synthetic peptide (Genscript, ≥95% purity)

Kd [2]: 203 ± 25 µM
B3: HIF2α-CODD M535T peptide (peptide, UniProt Q99814 523-542, looked up)
peptide: Ac-ELDLETLAPYIPTDGEDFQL-NH2
notes: HIF2α (EPAS1) CODD peptide, human, as m3 with the disease mutation M535T (Class 2); also called HIF2α M535T; source: synthetic peptide (Genscript, ≥95% purity)
